Assay results reported in PMC13544220, “Glycemic and bodyweight effects of GIPR coding variation reflect differences in surface expression and intrinsic functional impairment” (Science Advances, 2026).

Key:
Type in all cases: cell-based, human
[1] = tested on: wild-type and variant SNAP-GIPR; experiment: Surface SNAP-GIPR expression (SNAP-tag labelling) in AD293 cells; details: for AD293 Surface: Fig S3E, mean; for Surface SNAP-GIPR expression: sheet Fig 1C;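 for all read-outs here: scaled to the experimental average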
In short: (§1)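 Read-out: whole-cell fluorescence of surface-only SNAP label (Alexa Fluor 647, 500 nM, 10 min, RT), wide-field 20X, several FOVs per well. Flat-field corrected, phase-contrast masked, nontransfected-well signal subtracted; normalized to experiment mean or wild-type.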

[2] = tested on: wild-type and variant SNAP-GIPR; experiment: cADDis cAMP imaging in AD293 cells, ensemble, expression-matched and per decile; details: Fig S3F, cADDis, mean;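 note: Ensemble cells as % of IBMX/FSK response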
In short: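 AD293 cells were transfected with SNAP-GIPR constructs and cotransduced with the cADDis Green Up cAMP sensor, then labeled after 24 h with 500 nM SNAP-Surface Alexa Fluor 647. Per-cell cADDis intensity was tracked at 37°C in KRBH with 6 mM glucose and 0.1% BSA.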

[3] = tested on: wild-type and variant SNAP-GIPR; experiment: Constitutive and agonist-mediated internalization, reversible SNAP-tag labelling, INS-1 cells; set-up: key to Internalisation, GIP-only / Internalisation, Vehicle / Internalisation, +GIP: % internalization: residual fluorescence after Mesna vs pre-Mesna; details: Mean
In short: (§2)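 Percentage internalization calculated as specific SNAP fluorescence remaining after 10 min Mesna exposure, relative to pre-Mesna signal, imaged in TNE buffer (pH 8.6).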

[4] = tested on: wild-type and variant SNAP-GIPR; experiment: Surface SNAP-GIPR expression (SNAP-tag labelling) in INS-1 cells; details: Fig 4G; Mean
In short: as §1

[5] = tested on: wild-type and variant SNAP-GIPR; experiment: Single-concentration GIP cAMP response by HTRF in AD293 cells; details: Fig S3F, HTRF, mean;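 note: ratio to experiment-wide average response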
Method: (§3) All variants were tested in parallel on each occasion to control for transfection efficiency differences between experiments.

[6] = tested on: wild-type and variant SNAP-GIPR; experiment: Single-concentration GIP cAMP response by HTRF in INS-1 cells; details: Fig S3E, mean
Method: as §3

[7] = tested on: wild-type and variant SNAP-GIPR; experiment: Constitutive and agonist-mediated internalization, reversible SNAP-tag labelling, AD293 cells; set-up: key to Internalisation, Vehicle / Internalisation, +GIP / Internalisation, GIP-only: % internalization: residual fluorescence after Mesna vs pre-Mesna; Surface expression: unit not given here; details: Mean
In short: as §2

B1: R341P (protein, UniProt P48546 22-466, looked up, variant R341P)
Gastric inhibitory …: RAETGSKGQTAGELYQRWERYRRECQETLAAAEPPSGLACNGSFDMYVCWDYAAPNATARASCPWYLPWHHHVAAGFVLRQCGSDGQWGLWRDHTQCENPEKNEAFLDQRLILERLQVMYTVGYSLSLATLLLALLILSLFRRLHCTRNYIHINLFTSFMLRAAAILSRDRLLPRPGPYLGDQALALWNQALAACRTAQIVTQYCVGANYTWLLVEGVYLHSLLVLVGGSEEGHFRYYLLLGWGAPALFVIPWVIVRYLYENTQCWERNEVKAIWWIIRTPILMTILINFLIFIRILGILLSKLRTRQMRCRDYRLRLAPSTLTLVPLLGVHEVVFAPVTEEQARGALRFAKLGFEIFLSSFQGFLVSVLYCFINKEVQSEIRRGWHHCRLRRSLGEEQRQLPERAFRALPSGSGPGEVPTSRGLSSGTLPGPGNEASRELESYC
AD293 Surface ([1]; column repeated, paired with cAMP 100 nM): 0.2494 | AD293 Surface ([1]; paired with cAMP 100 pM): 0.2494 | Surface SNAP-GIPR expression ([1]; replicate 1): 0.3004 | Surface SNAP-GIPR expression ([1]; replicate 2): 0.416 | Surface SNAP-GIPR expression ([1]; replicate 3): 0.1222 | Surface SNAP-GIPR expression ([1]; replicate 4): 0.3179 | Surface SNAP-GIPR expression ([1]; replicate 5): 0.375 | Surface SNAP-GIPR expression ([1]; replicate 6): 0.2191 | Surface SNAP-GIPR expression ([1]; replicate 7): 0.3629 | Surface SNAP-GIPR expression ([1]; replicate 8): 0.2975 | Surface SNAP-GIPR expression ([1]; replicate 9): 0.196 | Surface SNAP-GIPR expression ([1]; replicate 10): 0.2642 | Surface SNAP-GIPR expression ([1]; replicate 11): 0.31 | Surface SNAP-GIPR expression ([1]; replicate 12): 0.2856 | Surface SNAP-GIPR expression ([1]; replicate 13): 0.6221 | Surface SNAP-GIPR expression ([1]; replicate 14): 0.2061 | Surface SNAP-GIPR expression ([1]; replicate 15): 0.2357 | Surface SNAP-GIPR expression ([1]; replicate 16): 0.2383 | Surface SNAP-GIPR expression ([1]; replicate 17): 0.211 | Surface SNAP-GIPR expression ([1]; replicate 18): 0.144 | Surface SNAP-GIPR expression ([1]; replicate 19): 0.3559 | Surface SNAP-GIPR expression ([1]; replicate 20): 0.2316 | Surface SNAP-GIPR expression ([1]; replicate 21): 0.2368 | Surface SNAP-GIPR expression ([1]; replicate 22): 0.1783 | Surface SNAP-GIPR expression ([1]; replicate 23): 0.2272 | Surface SNAP-GIPR expression ([1]; replicate 24): 0.2138 | Surface SNAP-GIPR expression ([1]; replicate 25): 0.2383 | Surface SNAP-GIPR expression ([1]; replicate 26): 0.2262 | Surface SNAP-GIPR expression ([1]; replicate 27): 0.2274 | Surface SNAP-GIPR expression ([1]; replicate 28): 0.2002 | Surface SNAP-GIPR expression ([1]; replicate 29): 0.197 | Surface SNAP-GIPR expression ([1]; replicate 30): 0.3017 | Surface SNAP-GIPR expression ([1]; replicate 31): 0.1334 | Surface SNAP-GIPR expression ([1]; replicate 32): 0.2186 | Surface SNAP-GIPR expression ([1]; replicate 33): 0.2522 | Surface SNAP-GIPR expression ([1]; replicate 34): 0.2282 | Surface SNAP-GIPR expression ([1]; replicate 35): 0.2532 | Surface SNAP-GIPR expression ([1]; replicate 36): 0.1015 | Surface SNAP-GIPR expression ([1]; replicate 37): 0.1446 | Surface SNAP-GIPR expression ([1]; replicate 38): 0.2212 | Surface SNAP-GIPR expression ([1]; replicate 39): 0.2317 | Surface SNAP-GIPR expression ([1]; replicate 40): 0.2075 | Surface SNAP-GIPR expression ([1]; replicate 41): 0.2741 | AD293 100 pM cADDis ([2]; AD293, 100 pM): 0.6137 | AD293 100 nM cADDis ([2]; AD293, 100 nM): 9.179 | +GIP internalisation (100 nM) ([3]; Fig 4G, GIP 100 nM): 0.1423 | GIP-specific internalisation (100 nM) ([3]; Fig 4G, GIP 100 nM): 0.02008 | Constitutive internalisation (100 nM) ([3]; Fig 4G): 0.1222 | Internalisation, +GIP ([3]; Fig S4C, INS-1): 48.645 | Internalisation, GIP-only ([3]; Fig S4C, INS-1): 6.527 | Internalisation, Vehicle ([3]; Fig S4C, INS-1): 42.1183 | Surface expression [4]: 0.2942 | AD293 100 pM HTRF ([5]; AD293, 100 pM): 0.001435 | AD293 100 nM HTRF ([5]; AD293, 100 nM): 0.1915 | INS-1 cAMP (100 nM) [6]: -0.2249 | +GIP internalisation (100 nM) ([7]; Fig 4E, GIP 100 nM): 0.1278 | GIP-specific internalisation (100 nM) ([7]; Fig 4E, GIP 100 nM): 0.02136 | Constitutive internalisation (100 nM) ([7]; Fig 4E): 0.1065 | Surface expression ([7]; Fig 4E): 0.1733 | Internalisation, +GIP ([7]; Fig S4C, AD293): 72.1567 | Internalisation, GIP-only ([7]; Fig S4C, AD293): 15.7264 | Internalisation, Vehicle ([7]; Fig S4C, AD293): 56.4303
